This is an account of results in US20240084027A1 (BEIJING MABWORKS, published 2024).

Test [1] addresses T1, human CD40 on HEK293A/human CD40 cells (human, UniProt P25942 21-277). In words: cell-based or functional assay.
Test [2] has as its target T1, human CD40 on HEK293A/human CD40 cells. The experiment in a line: FACS on HEK293A/human CD40 cells. The method, then: (§1) The bispecific antibodies as prepared above were tested for their binding capability to cell surface human, monkey and mouse CD40 proteins by FACS, using the HEK293A cells prepared in Example 1 that stably expressed human, monkey or mouse CD40. Briefly, a 96-well plate was seeded with 10⁵ HEK293A cells in 50 μl PBS, and then added with 100 μl serially diluted anti-CD40 antibody 714VH2VL2 and the bispecific antibodies of the disclosure (starting concentration at 40 μg/ml). After incubation at 4° C. for 1 h, the plate was washed by PBST for 3 times. The plate was added with 1:500 diluted APC-goat anti-mouse IgG (Cat #:405308, BioLegen, USA), incubated at 4° for 1 h, washed with PBS for 3 times, and subjected to fluorescence measurement in a FACS machine (BD).
(§2) Following the protocols in Example 4 and Example 5, the bi- or multi-specific antibodies of the disclosure were tested for their binding capability to human PD-L1 and human CD40 proteins by FACS using the HEK293A cells prepared in Example 1 that stably expressed human PD-L1 or human CD40.

In test [3] the target is T2, human PD-L1 on HEK293A/human PD-L1 cells (human, UniProt Q9NZQ7 19-290). In words: FACS on HEK293A/human PD-L1 cells. The method, then: as §1, §2
T2 sequence (Q9NZQ7 19-290 limits assumed): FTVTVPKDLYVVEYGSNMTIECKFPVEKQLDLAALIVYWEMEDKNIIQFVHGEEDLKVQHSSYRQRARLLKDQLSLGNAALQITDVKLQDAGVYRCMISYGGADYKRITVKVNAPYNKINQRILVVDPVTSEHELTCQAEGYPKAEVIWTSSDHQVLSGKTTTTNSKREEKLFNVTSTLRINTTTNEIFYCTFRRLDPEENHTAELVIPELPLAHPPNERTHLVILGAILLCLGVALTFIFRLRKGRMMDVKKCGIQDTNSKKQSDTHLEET
Another test has as its target T3, human CD40-his protein (human, UniProt P25942 21-193).
T3 construct: Bought protein; also called human CD40 protein; CD40 molecules; not shown: his tag
In words: SPR (BIAcore 8K), human CD40-his coupled to CM5 chip, antibody injected. An excerpt: (§3) Using BIAcore™ 8K instrument (GE Life Sciences, US), the binding affinity of the bi- or multi-specific antibodies to human CD40 and PD-L1 was quantitatively measured. Briefly, 100-200 response units (RU) of human CD40-his protein (Cat #:10774-1108H, Sino Biological, CN) or human PD-L1-his protein (Cat #:10084-H08H, Sino Biological, CN) were coupled to CM5 biosensor chips (Cat #:BR-1005-30, GE Life Sciences. USA). The un-reacted groups were then blocked with 1 M ethanolamine. Serially diluted antibodies at concentrations ranging from 0.3 μM to 10 μM were injected into the SPR running buffer (HBS-EP buffer, pH7.4, Cat #:BR-1006-69, GE Life Sciences, USA) at 30 μL/min. The binding affinity was calculated with the RUs of blank controls subtracted, and the association rate (kₐ) and dissociation rate (kd) were determined using the one-to-one Langmuir binding model (BIA Evaluation Software, GE Life Sciences, USA). The equilibrium dissociation constant KD was calculated as the kd/kₐ ratio.

A further test addresses T4, human PD-L1-his protein (human, UniProt Q9NZQ7 19-238).
T4 construct: extracellular domain; also called human PD-L1 (ECD)-his; human PD-L1 protein; not shown: his tag
The experiment in a line: SPR (BIAcore 8K), human PD-L1-his coupled to CM5 chip, antibody injected.
From the text: as §3

For test [4], the target named is T2, human PD-L1 on HEK293A/human PD-L1 cells. The experiment in a line: FACS blocking assay on HEK293A/human PD-L1 cells; blocked ligand PD-1-Fc. The method, then: The bispecific antibodies were tested for their blocking activity on PD-1-PD-L1 binding by FACS using the HEK293A cells stably expressing human PD-L1 molecules as prepared in Example 1. Briefly, a 96-well plate was seeded with 10⁵ HEK293A/human PD-L1 cells in 100 μl cell culture medium, and then added with 50 μl serially diluted anti-PD-L1 antibody 56E5VH5VL4 or MBS307-3 molecules. After incubation at 4° C. for 1 h. the plate was washed with PBST for 3 times, added with 100 μl 200 μg/ml PD-1-Fc fusion proteins (Cat #:10377-10211, Sino Biological, CN), incubated at 4° C. for 1 h, washed with PBST for 3 times, and added with 1:500 diluted PE-goat anti-human IgG (Cat #:PAI-86078, Thermofisher, USA). After incubation at 4° C. for 1 h, the plate was washed with PBST for 3 times and measured for fluorescence using a FACS machine (BD).
Following the protocol of Example 7, the bi- or multi-specific antibodies were tested for their capability to block PD-1-PD-L1 binding by FACS, using the HEK293A cells prepared in Example 1 that stably expressed human PD-L1 molecules.

Test [5] deals with T1, human CD40 on HEK293A/human CD40 cells. The experiment in a line: cell-based or functional assay. The source holds these as a separate data set.
For test [6] the target is unchanged. In words: FACS on HEK293A/human CD40 cells. The protocol:
as §1, §2
This is another data set of the same source.

For test [7] the target is unchanged. The experiment in a line: cell-based or functional assay. The source holds these as a separate data set.
For test [8] the target is unchanged. The experiment in a line: FACS on HEK293A/human CD40 cells. The method, then:
as §1
The source holds these as a separate data set.

For test [9], the target named is T5, monkey CD40 on HEK293A/monkey CD40 cells (monkey, UniProt P25942 21-277 (human entry)).
T5 chain: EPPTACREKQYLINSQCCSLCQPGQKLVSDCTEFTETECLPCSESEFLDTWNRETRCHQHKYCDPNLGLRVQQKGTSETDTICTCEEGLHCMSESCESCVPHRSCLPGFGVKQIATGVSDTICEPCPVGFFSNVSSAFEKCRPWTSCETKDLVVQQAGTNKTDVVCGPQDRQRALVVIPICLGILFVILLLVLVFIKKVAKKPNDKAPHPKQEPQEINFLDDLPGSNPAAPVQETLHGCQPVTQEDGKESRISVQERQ
In words: FACS on HEK293A/monkey CD40 cells. The protocol:
as §1

Where two headings read alike, the source gives them in different places.

T4 sequence (Q9NZQ7 19-238): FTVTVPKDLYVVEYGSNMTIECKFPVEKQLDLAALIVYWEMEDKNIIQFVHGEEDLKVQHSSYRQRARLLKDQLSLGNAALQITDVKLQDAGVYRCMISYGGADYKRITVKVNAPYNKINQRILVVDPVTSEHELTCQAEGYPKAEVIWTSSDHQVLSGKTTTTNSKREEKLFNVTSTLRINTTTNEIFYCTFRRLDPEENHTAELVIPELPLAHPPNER

B1: MBS307-6 (bispecific antibody, human IgG1, kappa, L234A L235A)
heavy 1: QVQLQESGPGLVKPSDTLSLTCAVSGYSITTNYYWNWIRQPPGKGLEWMGYIKYDGSNNYNPSLKNRITISVDTSKNQFSLKLSSVTAVDTAVYYCARLDYWGQGTLVTVSSASTKGPSVFPLAPSSKSTSGGTAALGCLVKDYFPEPVTVSWNSGALTSGVHTFPAVLQSSGLYSLSSVVTVPSSSLGTQTYICNVNHKPSNTKVDKKVEPKSCDKTHTCPPCPAPEAAGGPSVFLFPPKPKDTLMISRTPEVTCVVVDVSHEDPEVKFNWYVDGVEVHNAKTKPREEQYNSTYRVVSVLTVLHQDWLNGKEYKCKVSNKALPAPIEKTISKAKGQPREPQVYTLPPSREEMTKNQVSLWCLVKGFYPSDIAVEWESNGQPENNYKTTPPVLDSDGSFFLYSKLTVDKSRWQQGNVFSCSVMHEALHNHYTQKSLSLSPGK
heavy 2: QVQLQESGPGLVKPSDTLSLTCAVSGYSITTNYYWNWIRQPPGKGLEWMGYIKYDGSNNYNPSLKNRITISVDTSKNQFSLKLSSVTAVDTAVYYCARLDYWGQGTLVTVSSASTKGPSVFPLAPSSKSTSGGTAALGCLVKDYFPEPVTVSWNSGALTSGVHTFPAVLQSSGLYSLSSVVTVPSSSLGTQTYICNVNHKPSNTKVDKKVEPKSCDKTHTCPPCPAPEAAGGPSVFLFPPKPKDTLMISRTPEVTCVVVDVSHEDPEVKFNWYVDGVEVHNAKTKPREEQYNSTYRVVSVLTVLHQDWLNGKEYKCKVSNKALPAPIEKTISKAKGQPREPQVYTLPPSREEMTKNQVSLSCAVKGFYPSDIAVEWESNGQPENNYKTTPPVLDSDGSFFLVSKLTVDKSRWQQGNVFSCSVMHEALHNHYTQKSLSLSPGSGGGGSGGGGSQVQLQESGPGLVKPSQTLSLTCTVSGGSITSDYWNWIRQHPGNKLEYMGYISYTGSTYYNPSLKSRISITRDTSKNQFSLKLSSVTTADTAVYYCARYRDWDVRAMDYWGQGTTVTVSSGGGGSGGGGSGGGGSGGGGSDIVMTQSPDSLAVSLGEKVTMNCKSSQSLLISGNQKNFLTWYQQKPGQPPKLLIYWASTRESGVPDRFSGSGSGTDFTLTISSLQAEDEAVYYCQNDFGFPFTFGQGTKLTAK
light: DVVLTQSPLSLPVTLGQPASISCRSSQSLENSNGNTFLNWFQQRPGQSPRLLIYKVSNRFSGVPDRFSGSGSGTDFTLKISRVEAEDVGVYYCLQVTHVPFTFGQGTKLEIKRTVAAPSVFIFPPSDEQLKSGTASVVCLLNNFYPREAKVQWKVDNALQSGNSQESVTEQDSKDSTYSLSSTLTLSKADYEKHKVYACEVTHQGLSSPVTKSFNRGEC
notes: Asymmetric: anti-CD40 antibody, knob chain without scFv, hole chain with the anti-PD-L1 scFv of 56E5VH5VL4; also called MBS307-6-1 + MBS307-6-2
Broadly, the EC50 (read off the curve) is the concentration at which the effect is half-maximal. Broadly, the Kd is the free concentration of one partner at which half of the binding sites on the other are occupied at equilibrium, for simple one-to-one binding. On to B1, for which the “EC50 (read off the curve); HEK-Blue/CD40 reporter, OD630, plate coated with human PD-L1-his” value (shortened to “EC50 (read off the curve) … with human PD-L1-his”) in [1] was around 0.02 µg/mL. For the same molecule, the half-maximal effective concentration (EC50 (read off the curve)) in test [2] was around 0.07 µg/mL; in [3] it was around 0.6 µg/mL. Further, the Kd in the test with human CD40-his protein worked out at 3.11 nM; with human PD-L1-his protein it was 42 nM. In [4], the “IC50 (read off the curve)” value was around 1 µg/mL.

B2: MBS307-7 (bispecific antibody, human IgG1, kappa, L234A L235A)
heavy: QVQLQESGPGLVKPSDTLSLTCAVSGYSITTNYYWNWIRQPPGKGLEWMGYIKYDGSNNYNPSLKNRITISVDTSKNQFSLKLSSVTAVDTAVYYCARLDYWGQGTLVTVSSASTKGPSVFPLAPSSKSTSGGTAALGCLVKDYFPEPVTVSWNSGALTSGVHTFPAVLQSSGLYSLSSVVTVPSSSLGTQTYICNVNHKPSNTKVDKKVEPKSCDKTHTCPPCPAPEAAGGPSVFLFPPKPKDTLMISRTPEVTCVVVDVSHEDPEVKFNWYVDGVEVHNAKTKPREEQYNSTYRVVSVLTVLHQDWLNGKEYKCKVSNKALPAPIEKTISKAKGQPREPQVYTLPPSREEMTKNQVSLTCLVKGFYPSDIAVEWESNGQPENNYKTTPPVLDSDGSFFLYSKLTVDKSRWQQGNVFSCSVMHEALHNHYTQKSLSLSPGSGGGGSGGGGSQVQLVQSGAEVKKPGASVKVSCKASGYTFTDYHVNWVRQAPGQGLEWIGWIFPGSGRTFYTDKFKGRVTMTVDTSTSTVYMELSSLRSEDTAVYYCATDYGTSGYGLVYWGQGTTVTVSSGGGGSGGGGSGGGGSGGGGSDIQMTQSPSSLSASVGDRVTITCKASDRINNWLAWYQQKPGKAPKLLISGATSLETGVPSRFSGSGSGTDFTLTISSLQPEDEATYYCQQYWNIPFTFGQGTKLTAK
light: B1 light
notes: Symmetric: full-length anti-CD40 antibody with the anti-PD-L1 scFv of 3C2VH6VL5 on each heavy chain
In the case of B2, the “EC50 (read off the curve) … with human PD-L1-his” value in [5] is around 0.1 µg/mL. For the same molecule, the concentration for a half-maximal effect (EC50 (read off the curve)) in test [6] is around 0.06 µg/mL. For the same molecule, the figures for the dissociation constant Kd with human CD40-his protein and with human PD-L1-his protein were 1.43 nM and 11.9 nM, respectively.

B3: anti-CD40 antibody 7B4VH2VL2 (antibody, V domains shown)
VH: QVQLQESGPGLVKPSDTLSLTCAVSGYSITTNYYWNWIRQPPGKGLEWMGYIKYDGSNNYNPSLKNRITISVDTSKNQFSLKLSSVTAVDTAVYYCARLDYWGQGTLVTVSS
VL: DVVLTQSPLSLPVTLGQPASISCRSSQSLENSNGNTFLNWFQQRPGQSPRLLIYKVSNRFSGVPDRFSGSGSGTDFTLKISRVEAEDVGVYYCLQVTHVPFTFGQGTKLEIK
notes: also called the monospecific anti-CD40 antibody; 714VH2VL2 [sic]
On to B3, for which the “EC50 (read off the curve) … with human PD-L1-his” value is around 0.1 µg/mL in test [5], around 0.1 µg/mL in test [1] and around 0.04 µg/mL in test [7]. Further, the concentration giving a half-maximal response (EC50 (read off the curve)) is around 0.05 µg/mL in test [8], around 0.03 µg/mL in test [6], around 0.04 µg/mL in [2] and around 0.04 µg/mL in test [9].
